The numbers were not newly measured in PMC10343017, which cites them from elsewhere.

The target of one series is CMG2 (Homo sapiens) (UniProt P58335).
A further series addresses TEM8 (Homo sapiens) (UniProt Q9H6X2).

Take “protective antigen (from UniProt P13423)”: the figures for the Kd with CMG2 (Homo sapiens) and with TEM8 (Homo sapiens) were 0.78 nM and 130 nM, respectively.
